The values that follow come from the supplement of paper PMC3353916.

± gives the standard deviation of the averaged measurements.

The test system of this data set is Sindbis virus TE/5'2J-GFP. Nature of the data set: percent infected (GFP+ in RFP+ ISG-expressing cells); higher = more infection (less antiviral activity). As to the method: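 Confirmatory testing of 87 ISGs. Triplicate wells of BHK/HA-Zeo (control) or BHK/NZAP-Zeo (ZAP) cells were transduced with lentiviruses co-expressing a human ISG plus TagRFP, then infected 48 h later with SINV TE/5'2J-GFP (moi 5). The % GFP+ cells among RFP+ cells was measured by flow cytometry at 8 h post infection. Fluc lentivirus served as control. Three independent experiments.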

[1] abbreviates: experiment: confirmatory screen 1, BHK/HA-Zeo (control).
Where [2] appears, read: experiment: confirmatory screen 1, BHK/NZAP-Zeo (ZAP).
Where [3] appears, read: experiment: confirmatory screen 2, BHK/HA-Zeo (control).
The mark [4] stands for this setting: experiment: confirmatory screen 2, BHK/NZAP-Zeo (ZAP).
[5] abbreviates: experiment: confirmatory screen 3, BHK/HA-Zeo (control).
Where [6] appears, read: experiment: confirmatory screen 3, BHK/NZAP-Zeo (ZAP).
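Further: Interferon-defective BHK-21 derivatives, ZAP line overexpressing the rat ZAP N-terminal zinc finger domain fused to Zeocin resistance, GFP scored within live singlet TagRFP+ cells.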

Take “MTLNNVTMRQGTVGMQPQQQRWSIPADGRHLMVQKEPHQYSHRNRHSATPEDHCRRSWSSDSTDSVISSESGNTYYRVVLIGEQGVGKSTLANIFAGVHDSMDSDCEVLGEDTYERTLMVDGESATIILLDMWENKGENEWLHDHCMQVGDAYLIVYSITDRASFEKASELRIQLRRARQTEDIPIILVGNKSDLVRCREVSVSEGRACAVVFDCKFIETSAAVQHNVKELFEGIVRQVRLRRDSKEKNERRLAYQKRKESMPRKARRFWGKIVAKNNKNMAFKLKSKSCHDLSVL [GEM]”: the percent infected by setting is: under setting [1], 91.5 ± 3.5%; under setting [2], 65 ± 4%; under setting [3], 94.19 ± 0.65%; under setting [4], 94.64 ± 0.36%; under setting [5], 94.39 ± 0.59%; under setting [6], 93.55 ± 0.12%.

In the case of “MTLRCLEPSGNGGEGTRSQWGTAGSAEEPSPQAARLAKALRELGQTGWYWGSMTVNEAKEKLKEAPEGTFLIRDSSHSDYLLTISVKTSAGPTNLRIEYQDGKFRLDSIICVKSKLKQFDSVVHLIDYYVQMCKDKRTGPEAPRNGTVHLYLTKPLYTSAPSLQHLCRLTINKCTGAIWGLPLPTRLKDYLEEYKFQV [SOCS2]”, the percent infected is, setting by setting: under setting [1], 95.84 ± 0.81%; under setting [2], 76.8 ± 4.2%; under setting [3], 95.47 ± 0.42%; under setting [4], 94.44 ± 0.35%; under setting [5], 92.29 ± 0.39%; under setting [6], 92.23 ± 0.73%.

Take “MTTEQRRSLQAFQDYIRKTLDPTYILSYMAPWFREEEVQYIQAEKNNKGPMEAATLFLKFLLELQEEGWFRGFLDALDHAGYSGLYEAIESWDFKKIEKLEEYRLLLKRLQPEFKTRIIPTDIISDLSECLINQECEEILQICSTKGMMAGAEKLVECLLRSDKENWPKTLKLALEKERNKFSELWIVEKGIKDVETEDLEDKMETSDIQIFYQEDPECQNLSENSCPPSEVSDTNLYSPFKPRNYQLELALPAMKGKNTIICAPTGCGKTFVSLLICEHHLKKFPQGQKGKVVFFANQIPVYEQQKSVFSKYFERHGYRVTGISGATAENVPVEQIVENNDIIILTPQILVNNLKKGTIPSLSIFTLMIFDECHNTSKQHPYNMIMFNYLDQKLGGSSGPLPQVIGLTASVGVGDAKNTDEALDYICKLCASLDASVIATVKHNLEELEQVVYKPQKFFRKVESRISDKFKYIIAQLMRDTESLAKRICKDLENLSQIQNREFGTQKYEQWIVTVQKACMVFQMPDKDEESRICKALFLYTSHLRKYNDALIISEHARMKDALDYLKDFFSNVRAAGFDEIEQDLTQRFEEKLQELESVSRDPSNENPKLEDLCFILQEEYHLNPETITILFVKTRALVDALKNWIEGNPKLSFLKPGILTGRGKTNQNTGMTLPAQKCILDAFKASGDHNILIATSVADEGIDIAQCNLVILYEYVGNVIKMIQTRGRGRARGSKCFLLTSNAGVIEKEQINMYKEKMMNDSILRLQTWDEAVFREKILHIQTHEKFIRDSQEKPKPVPDKENKKLLCRKCKALACYTADVRVIEECHYTVLGDAFKECFVSRPHPKPKQFSSFEKRAKIFCARQNCSHDWGIHVKYKTFEIPVIKIESFVVEDIATGVQTLYSKWKDFHFEKIPFDPAEMSK [DDX58]”: the percent infected came to 38 ± 4.1% under setting [1]; 4.81 ± 4.5% under setting [2]; 96.53 ± 0.19% under setting [3]; 89.2 ± 2.2% under setting [4]; 75.6 ± 6% under setting [5]; 23.2 ± 3.1% under setting [6].

On to PCTK2, for which the percent infected runs as follows: under setting [1], 97.15 ± 0.48%; under setting [2], 70.7 ± 3.2%; under setting [3], 96.52 ± 0.12%; under setting [4], 94.42 ± 0.39%; under setting [5], 83.84 ± 0.21%; under setting [6], 86.8 ± 1.1%.

With PDK1, the percent infected was 94.39 ± 0.65% under setting [1]; 65.7 ± 2.9% under setting [2]; 95.24 ± 0.62% under setting [3]; 95.39 ± 0.19% under setting [4]; 93.83 ± 0.42% under setting [5]; 93.94 ± 0.33% under setting [6].

In turn, PRIC285 yielded a percent infected under setting [1] of 94.6 ± 2.5%; a percent infected under setting [2] of 53.7 ± 6.2%; a percent infected under setting [3] of 96.59 ± 0.24%; a percent infected under setting [4] of 95.01 ± 0.88%; a percent infected under setting [5] of 83.7 ± 1.5%; a percent infected under setting [6] of 87.13 ± 0.73%.

Regarding TIMP1, the percent infected came out at 94.88 ± 0.13% under setting [1]; 66.4 ± 2.3% under setting [2]; 94.66 ± 0.28% under setting [3]; 93.37 ± 0.42% under setting [4]; 90.3 ± 1.8% under setting [5]; 92.63 ± 0.18% under setting [6].

In the case of UBE2L6, the percent infected by setting is: under setting [1], 95.97 ± 0.92%; under setting [2], 78.8 ± 2.3%; under setting [3], 96.37 ± 0.3%; under setting [4], 95.27 ± 0.14%; under setting [5], 94.34 ± 0.69%; under setting [6], 93.02 ± 0.28%.
